Patent US20250327097A1, “ORGANISMS PRODUCING LESS CROTONIC ACID” (Global Bioenergies, priority 2021, published 2025)

Tested on: 3-methylcrotonic acid
Format: biochemical, Yersinia frederiksenii
Parameters: key: “+” representing a low increase in activity; “++++” representing a high increase in activity

Molecule | Activity relative to WT
I283T-P284D-N287P-S322T-N388M-C430N-L432F-L434W-S436N-H461Y-dG462-A463T-S465V (protein) MFLKSLREQINLLKRQGDLRIINRPVDSYLEAAAIIRRSTETKAPVPLMTNIKGYPGCSIVGGLAALSSNPEYPLSRVAMSLGLSTTASAQSIVQYLIDGLKKTPYLPVEIDSNSAPCKQNILRGEDASLAHFPIPQVHQHDGNRYVNTWGVFIVESPDGQWCNWSIQRVQYLNDRQMIALVFPSQHISDIWEEWVKIGKPMPYALVQGCEPIVPYIAGLPLLERNVNEAEYIGALYGKGIEVVKCETHDLRVPASSEVVIEGYFAITREGVEGPFGEFAGYTDNEPSLQPILSITAISWQDDPIWPVVAEGKPVDEYHTCTGIGDAAAIQNVLLTANLPVSFVWVPLYSACHLMIVSINRHWRQTHPDLTSEQLTKKVGDVIHQTRMSIKLPKIVVLDDDVDPADTESLLWALATRIHPERKRYFYESNIFPWLNCYSEEERHNRKGKRVIIDALLPENYGTIVSFDYAYPDDIKQRVLMHWETDFSHD | ++++
I283T-P284D-N287P-S322T-N388M-E421V-R422F-C430N-L432F-L434W-S436N-dG462 (protein) MFLKSLREQINLLKRQGDLRIINRPVDSYLEAAAIIRRSTETKAPVPLMTNIKGYPGCSIVGGLAALSSNPEYPLSRVAMSLGLSTTASAQSIVQYLIDGLKKTPYLPVEIDSNSAPCKQNILRGEDASLAHFPIPQVHQHDGNRYVNTWGVFIVESPDGQWCNWSIQRVQYLNDRQMIALVFPSQHISDIWEEWVKIGKPMPYALVQGCEPIVPYIAGLPLLERNVNEAEYIGALYGKGIEVVKCETHDLRVPASSEVVIEGYFAITREGVEGPFGEFAGYTDNEPSLQPILSITAISWQDDPIWPVVAEGKPVDEYHTCTGIGDAAAIQNVLLTANLPVSFVWVPLYSACHLMIVSINRHWRQTHPDLTSEQLTKKVGDVIHQTRMSIKLPKIVVLDDDVDPADTESLLWALATRIHPVFKRYFYESNIFPWLNCYSEEERHNRKGKRVIIDALLPENHGAISSFDYAYPDDIKQRVLMHWETDFSHD | ++++
I283T-P284D-N287P-S322T-N388M-E421V-C430N-L432F-L434W-S436N-H461T-dG462 (protein) MFLKSLREQINLLKRQGDLRIINRPVDSYLEAAAIIRRSTETKAPVPLMTNIKGYPGCSIVGGLAALSSNPEYPLSRVAMSLGLSTTASAQSIVQYLIDGLKKTPYLPVEIDSNSAPCKQNILRGEDASLAHFPIPQVHQHDGNRYVNTWGVFIVESPDGQWCNWSIQRVQYLNDRQMIALVFPSQHISDIWEEWVKIGKPMPYALVQGCEPIVPYIAGLPLLERNVNEAEYIGALYGKGIEVVKCETHDLRVPASSEVVIEGYFAITREGVEGPFGEFAGYTDNEPSLQPILSITAISWQDDPIWPVVAEGKPVDEYHTCTGIGDAAAIQNVLLTANLPVSFVWVPLYSACHLMIVSINRHWRQTHPDLTSEQLTKKVGDVIHQTRMSIKLPKIVVLDDDVDPADTESLLWALATRIHPVRKRYFYESNIFPWLNCYSEEERHNRKGKRVIIDALLPENTGAISSFDYAYPDDIKQRVLMHWETDFSHD | ++++
I283T-P284D-N287P-S322T-N388M-R422F-C430N-L432F-L434W-S436N-H461V-dG462 (protein) MFLKSLREQINLLKRQGDLRIINRPVDSYLEAAAIIRRSTETKAPVPLMTNIKGYPGCSIVGGLAALSSNPEYPLSRVAMSLGLSTTASAQSIVQYLIDGLKKTPYLPVEIDSNSAPCKQNILRGEDASLAHFPIPQVHQHDGNRYVNTWGVFIVESPDGQWCNWSIQRVQYLNDRQMIALVFPSQHISDIWEEWVKIGKPMPYALVQGCEPIVPYIAGLPLLERNVNEAEYIGALYGKGIEVVKCETHDLRVPASSEVVIEGYFAITREGVEGPFGEFAGYTDNEPSLQPILSITAISWQDDPIWPVVAEGKPVDEYHTCTGIGDAAAIQNVLLTANLPVSFVWVPLYSACHLMIVSINRHWRQTHPDLTSEQLTKKVGDVIHQTRMSIKLPKIVVLDDDVDPADTESLLWALATRIHPEFKRYFYESNIFPWLNCYSEEERHNRKGKRVIIDALLPENVGAISSFDYAYPDDIKQRVLMHWETDFSHD | ++++
I283T-P284D-N287P-S322T-N388M-R422F-C430N-L432F-L434W-S436N-H461T-dG462 (protein) MFLKSLREQINLLKRQGDLRIINRPVDSYLEAAAIIRRSTETKAPVPLMTNIKGYPGCSIVGGLAALSSNPEYPLSRVAMSLGLSTTASAQSIVQYLIDGLKKTPYLPVEIDSNSAPCKQNILRGEDASLAHFPIPQVHQHDGNRYVNTWGVFIVESPDGQWCNWSIQRVQYLNDRQMIALVFPSQHISDIWEEWVKIGKPMPYALVQGCEPIVPYIAGLPLLERNVNEAEYIGALYGKGIEVVKCETHDLRVPASSEVVIEGYFAITREGVEGPFGEFAGYTDNEPSLQPILSITAISWQDDPIWPVVAEGKPVDEYHTCTGIGDAAAIQNVLLTANLPVSFVWVPLYSACHLMIVSINRHWRQTHPDLTSEQLTKKVGDVIHQTRMSIKLPKIVVLDDDVDPADTESLLWALATRIHPEFKRYFYESNIFPWLNCYSEEERHNRKGKRVIIDALLPENTGAISSFDYAYPDDIKQRVLMHWETDFSHD | ++++
I283T-P284D-N287P-S322T-N388M-R422F-C430N-L432F-L434W-S436N-dG462-A463T (protein) MFLKSLREQINLLKRQGDLRIINRPVDSYLEAAAIIRRSTETKAPVPLMTNIKGYPGCSIVGGLAALSSNPEYPLSRVAMSLGLSTTASAQSIVQYLIDGLKKTPYLPVEIDSNSAPCKQNILRGEDASLAHFPIPQVHQHDGNRYVNTWGVFIVESPDGQWCNWSIQRVQYLNDRQMIALVFPSQHISDIWEEWVKIGKPMPYALVQGCEPIVPYIAGLPLLERNVNEAEYIGALYGKGIEVVKCETHDLRVPASSEVVIEGYFAITREGVEGPFGEFAGYTDNEPSLQPILSITAISWQDDPIWPVVAEGKPVDEYHTCTGIGDAAAIQNVLLTANLPVSFVWVPLYSACHLMIVSINRHWRQTHPDLTSEQLTKKVGDVIHQTRMSIKLPKIVVLDDDVDPADTESLLWALATRIHPEFKRYFYESNIFPWLNCYSEEERHNRKGKRVIIDALLPENHGTISSFDYAYPDDIKQRVLMHWETDFSHD | ++++
N388M-K394R-C430N-L432F-L434W-S436N-H444V (protein) MFLKSLREQINLLKRQGDLRIINRPVDSYLEAAAIIRRSTETKAPVPLMTNIKGYPGCSIVGGLAALSSNPEYPLSRVAMSLGLSTTASAQSIVQYLIDGLKKTPYLPVEIDSNSAPCKQNILRGEDASLAHFPIPQVHQHDGNRYVNTWGVFIVESPDGQWCNWSIQRVQYLNDRQMIALVFPSQHISDIWEEWVKIGKPMPYALVQGCEPIVPYIAGLPLLERNVNEAEYIGALYGKGIEVVKCETHDLRVPASSEVVIEGYFAITREGVEGPFGEFAGYIPNENSLQPILSITAISWQDDPIWPVVAEGKPVDEYHTCSGIGDAAAIQNVLLTANLPVSFVWVPLYSACHLMIVSINRHWRQTHPDLTSEQLTKKVGDVIHQTRMSIKLPRIVVLDDDVDPADTESLLWALATRIHPERKRYFYESNIFPWLNCYSEEERVNRKGKRVIIDALLPENHGAISSFDYAYPDDIKQRVLMHWETDFSHD | +
I283T-P284D-N287P-S322T-N388M-C430N-L432F-L434W-S436N-H461V-dG462-A463T-S465V (protein) MFLKSLREQINLLKRQGDLRIINRPVDSYLEAAAIIRRSTETKAPVPLMTNIKGYPGCSIVGGLAALSSNPEYPLSRVAMSLGLSTTASAQSIVQYLIDGLKKTPYLPVEIDSNSAPCKQNILRGEDASLAHFPIPQVHQHDGNRYVNTWGVFIVESPDGQWCNWSIQRVQYLNDRQMIALVFPSQHISDIWEEWVKIGKPMPYALVQGCEPIVPYIAGLPLLERNVNEAEYIGALYGKGIEVVKCETHDLRVPASSEVVIEGYFAITREGVEGPFGEFAGYTDNEPSLQPILSITAISWQDDPIWPVVAEGKPVDEYHTCTGIGDAAAIQNVLLTANLPVSFVWVPLYSACHLMIVSINRHWRQTHPDLTSEQLTKKVGDVIHQTRMSIKLPKIVVLDDDVDPADTESLLWALATRIHPERKRYFYESNIFPWLNCYSEEERHNRKGKRVIIDALLPENVGTIVSFDYAYPDDIKQRVLMHWETDFSHD | ++++
I283T-P284D-N287P-S322T-N388M-E421V-C430N-L432F-L434W-S436N-H461V-dG462 (protein) MFLKSLREQINLLKRQGDLRIINRPVDSYLEAAAIIRRSTETKAPVPLMTNIKGYPGCSIVGGLAALSSNPEYPLSRVAMSLGLSTTASAQSIVQYLIDGLKKTPYLPVEIDSNSAPCKQNILRGEDASLAHFPIPQVHQHDGNRYVNTWGVFIVESPDGQWCNWSIQRVQYLNDRQMIALVFPSQHISDIWEEWVKIGKPMPYALVQGCEPIVPYIAGLPLLERNVNEAEYIGALYGKGIEVVKCETHDLRVPASSEVVIEGYFAITREGVEGPFGEFAGYTDNEPSLQPILSITAISWQDDPIWPVVAEGKPVDEYHTCTGIGDAAAIQNVLLTANLPVSFVWVPLYSACHLMIVSINRHWRQTHPDLTSEQLTKKVGDVIHQTRMSIKLPKIVVLDDDVDPADTESLLWALATRIHPVRKRYFYESNIFPWLNCYSEEERHNRKGKRVIIDALLPENVGAISSFDYAYPDDIKQRVLMHWETDFSHD | ++++
I283T-P284D-N287P-S322T-N388M-E421V-C430N-L432F-L434W-S436N-dG462-A463T (protein) MFLKSLREQINLLKRQGDLRIINRPVDSYLEAAAIIRRSTETKAPVPLMTNIKGYPGCSIVGGLAALSSNPEYPLSRVAMSLGLSTTASAQSIVQYLIDGLKKTPYLPVEIDSNSAPCKQNILRGEDASLAHFPIPQVHQHDGNRYVNTWGVFIVESPDGQWCNWSIQRVQYLNDRQMIALVFPSQHISDIWEEWVKIGKPMPYALVQGCEPIVPYIAGLPLLERNVNEAEYIGALYGKGIEVVKCETHDLRVPASSEVVIEGYFAITREGVEGPFGEFAGYTDNEPSLQPILSITAISWQDDPIWPVVAEGKPVDEYHTCTGIGDAAAIQNVLLTANLPVSFVWVPLYSACHLMIVSINRHWRQTHPDLTSEQLTKKVGDVIHQTRMSIKLPKIVVLDDDVDPADTESLLWALATRIHPVRKRYFYESNIFPWLNCYSEEERHNRKGKRVIIDALLPENHGTISSFDYAYPDDIKQRVLMHWETDFSHD | ++++
